Laboratory results reported in the supplement of paper PMC12338614.
± gives the uncertainty stated by the source.

B1: library; numbered along this chain (parent)
chain: MEVVDPQQLGMFTEGELMSVGMDTFIHRIDSTEVIYQPRRKRAKLIGKYLMGDLLGEGSYGKVKEVLDSETLCRRAVKILKKKKLRRIPNGEANVKKEIQLLRRLRHKNVIQLVDVLYNEEKQKMYMVMEYCVCGMQEMLDSVPEKRFPVCQAHGYFCQLIDGLEYLHSQGIVHKDIKPGNLLLTTGGTLKISDLGVAEALHPFAADDTCRTSQGSPAFQPPEIANGLDTFSGFKVDIWSAGVTLYNITTGLYPFEGDNIYKLFENIGKGSYAIPGDCGPPLSDLLKGMLEYEPAKRFSIRQIRQHSWFRKKHPPAEAPVPIPPSPDTKDRWRSMTVVPYLEDLHGADEDEDLFDIEDDIIYTQDFTVPGQVPEEEASHNGQRRGLPKAVCMNGTEAAQLSTKSRAEGRAPNPARKACSASSKIRRLSACKQQ

Variants of: B1
Experiment: STK11 functional score (HeLa growth suppression), rescaled enrichment; synonymous median = 1, nonsense median = 0 (normalised score)
Conditions: with HeLa; variant type: missense
In short: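 Codon-randomised (POPCode) libraries of codon-optimised STK11 were integrated by Bxb1 at an AAVS1 landing pad in HeLa, in three regions each transfected three times. Integrants (BFP-negative, mCherry-positive) were FACS-sorted 4–5 days after electroporation and grown about two weeks; tiled gDNA amplicons were sequenced on NextSeq (~2 million reads per tile). The functional score is the wild-type-corrected post/pre-selection log ratio, rescaled to synonymous and nonsense medians, merged over codons and replicate transfections, with bootstrapped error.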

STK11 functional score, by site and new letter:
Q305: C 1.27 ± 0.4; Y 1.53 ± 0.17; M 1.51 ± 0.15; D 1.36 ± 0.16; H 0.99 ± 0.61; T 1.5 ± 0.24; G 1.52 ± 0.3; L 1.6 ± 0.16; E 1.02 ± 0.38; R 1.14 ± 0.47; I 1.53 ± 0.14; F 1.51 ± 0.2; W 0.981 ± 0.4; K 0.543 ± 0.25; A 1.33 ± 0.15; S 0.954 ± 0.59; V 1.59 ± 0.25
I303: N 1.54 ± 0.61; D -0.579 ± 0.078; Q 1.56 ± 0.24; F 0.372 ± 0.088; C 0.545 ± 0.16; V 1.43 ± 0.25; Y -0.337 ± 0.56; M 0.518 ± 0.53; S -0.209 ± 0.085
P315: Y 1.29 ± 0.08; A 1.07 ± 0.15; T 1.2 ± 0.42; N 1.51 ± 0.16; D 1.51 ± 0.16; C 1.17 ± 0.42; K 1.56 ± 0.27; V 1.17 ± 0.18; H 1.34 ± 0.24; E 1.57 ± 0.26; W 0.723 ± 0.21; Q 1.34 ± 0.075; R 1.32 ± 0.17; S 1.41 ± 0.14; G 1.29 ± 0.39; L 1.42 ± 0.18; I 1.21 ± 0.28; M 1.6 ± 0.19
K312: D 1.49 ± 0.22; C 1.17 ± 0.52; R 1.57 ± 0.17; W 1.53 ± 0.14; V 1.27 ± 0.11; L 1.3 ± 0.12; Q 1.58 ± 0.37; G 1.62 ± 0.15; A 1.25 ± 0.3; M 1.45 ± 0.19; Y 1.2 ± 0.1; F 0.982 ± 0.26; P 1.37 ± 0.16; E 0.874 ± 0.5; N 1.58 ± 0.43; T 1.5 ± 0.27; S 1.29 ± 0.3
A316: L 0.961 ± 0.14; Q 1.53 ± 0.15; V 0.768 ± 0.24; P 0.694 ± 0.36; S 0.768 ± 0.23; W 0.538 ± 0.091; R 0.901 ± 0.098; G 1.25 ± 0.19; I 1.32 ± 0.3; M 1 ± 0.69; F 1.19 ± 0.28; Y 1.4 ± 0.12
F309: N -0.159 ± 0.08; G -0.12 ± 0.08; R 0.0957 ± 0.13; D -0.479 ± 0.093; I 1.38 ± 0.25; S 0.538 ± 0.12; V 0.0641 ± 0.1; L 0.874 ± 0.32
S307: V 1.34 ± 0.16; A 1.49 ± 0.15; R 0.948 ± 0.22; D 1.49 ± 0.16; P 1.57 ± 0.27; W 1.47 ± 0.15; G 0.664 ± 0.35; T 1.22 ± 0.52; F 1.38 ± 0.1; L 1.47 ± 0.1; I 1.02 ± 0.091
K311: V 0.835 ± 0.47; W 0.995 ± 0.075; D 1.32 ± 0.29; L 1.04 ± 0.14; T 1.3 ± 0.18; S 0.915 ± 0.3; N 0.848 ± 0.47; G 1.35 ± 0.23; Y 1.06 ± 0.41; H 0.501 ± 0.66; I 1.26 ± 0.24; A 1.61 ± 0.15; P 1.07 ± 0.4; R 1.43 ± 0.24
P324: E 1.53 ± 0.098; I 1.56 ± 0.27; G 1.36 ± 0.15; K 0.708 ± 0.7; M 0.794 ± 0.7; D 1.57 ± 0.18; H 1.48 ± 0.15; C 1.33 ± 0.41; A 1.35 ± 0.15; L 1.37 ± 0.19
P319: G 1.53 ± 0.2; Y 1.46 ± 0.21; D 1.52 ± 0.16; H 1.16 ± 0.43; R 1.53 ± 0.26; Q 1.39 ± 0.2; A 1.37 ± 0.32; N 1.48 ± 0.16; S 1.4 ± 0.28; M 1.39 ± 0.12; W 0.513 ± 0.25; F 1.47 ± 0.26; V 0.772 ± 0.46; L 1.3 ± 0.17; C 0.642 ± 0.073
R310: V 1.43 ± 0.15; G 0.764 ± 0.2; F 1.35 ± 0.15; D 1.6 ± 0.15; C 1.06 ± 0.17; H 1.5 ± 0.18; T 0.923 ± 0.65; Y 1.53 ± 0.17; P 0.954 ± 0.3; I 1.59 ± 0.16; L 1.37 ± 0.27; S 1.54 ± 0.22
A318: Q 1.61 ± 0.29; L 1.58 ± 0.18; I 1.49 ± 0.16; R 1.43 ± 0.34; S 1.33 ± 0.28; V 1.11 ± 0.093; T 1.17 ± 0.67; C 1.23 ± 0.49; P 1.59 ± 0.26; F 1.6 ± 0.22; D 1.51 ± 0.18; M 0.577 ± 0.31; Y 1.63 ± 0.31
P323: T 1.32 ± 0.24; Q 0.422 ± 0.67; N 1.53 ± 0.15; R 1.01 ± 0.38; C 1.28 ± 0.5; D 1.33 ± 0.44; F 1.36 ± 0.33; S 1.3 ± 0.5; L 0.92 ± 0.24; H 1.42 ± 0.2; V 1.01 ± 0.11; G 1.13 ± 0.11; I 1.52 ± 0.14; W 0.993 ± 0.6; E 1.56 ± 0.27; K 1.58 ± 0.15; A 1.15 ± 0.28; M 1.55 ± 0.15
R301: P 1.07 ± 0.38; L 1.6 ± 0.16; G 1.48 ± 0.25; S 1.49 ± 0.35; A 1.56 ± 0.16; I 1.65 ± 0.25; V 1.62 ± 0.17; F 1.55 ± 0.22; C 1.17 ± 0.38; Y 1.6 ± 0.3
H313: A 1.33 ± 0.14; N 0.48 ± 0.26; G 1.13 ± 0.29; W 1.05 ± 0.35; R -0.189 ± 0.069; E 1.43 ± 0.16; L 1.48 ± 0.18; Y 0.272 ± 0.7; V 0.495 ± 0.12; S 1.17 ± 0.15; D 1.17 ± 0.29; C 1.26 ± 0.29; I 1.45 ± 0.24; Q 0.889 ± 0.49; P 0.624 ± 0.47; M 1.25 ± 0.59
Q302: W 0.804 ± 0.68; G 1.14 ± 0.51; A 1.45 ± 0.33; R 1.53 ± 0.25; E 0.957 ± 0.21; S 1.47 ± 0.16; F 1.14 ± 0.5; K 0.605 ± 0.3; L 1.45 ± 0.23; P -0.0839 ± 0.19; H 1.12 ± 0.3; V 1.21 ± 0.28; C 1 ± 0.73
W308: V -0.266 ± 0.088; S -0.303 ± 0.091; A 0.0826 ± 0.26; G 0.086 ± 0.081; F 1.02 ± 0.078; C -0.11 ± 0.088; L -0.172 ± 0.075; R -0.166 ± 0.096; Y -0.119 ± 0.11
H306: A 1.38 ± 0.39; G 0.475 ± 0.077; R 0.628 ± 0.086; L 0.85 ± 0.59; W -0.368 ± 0.084; Q 0.514 ± 0.21; Y 0.195 ± 0.17; C 0.975 ± 0.1; E 1.19 ± 0.38; V 0.418 ± 0.39; P 0.114 ± 0.26; S 1.53 ± 0.15; T 1.54 ± 0.19; I 0.83 ± 0.16
V320: F 1.07 ± 0.37; I 1.59 ± 0.17; T 1.57 ± 0.27; M 1.47 ± 0.53; L 0.723 ± 0.1; H 1.59 ± 0.27; Y 1.55 ± 0.23; W 0.717 ± 0.091; S 1.48 ± 0.14; P 1.56 ± 0.33; C 0.788 ± 0.12; A 1.55 ± 0.2; R 1.49 ± 0.17
E317: N 1.6 ± 0.3; I 1.55 ± 0.19; V 1.36 ± 0.11; F 0.542 ± 0.14; Q 1.2 ± 0.4; M 0.316 ± 0.21; D 1.57 ± 0.34; G 1.56 ± 0.17; S 0.661 ± 0.31; R 1.58 ± 0.22; C 1.49 ± 0.17; A 1.53 ± 0.22; W 1.62 ± 0.16; H 1.25 ± 0.28; L 1.34 ± 0.27; Y 1.04 ± 0.4; P 1.6 ± 0.21
I322: M 0.829 ± 0.47; V 1.08 ± 0.23; Q 0.336 ± 0.09; A 1.53 ± 0.16; R 1.11 ± 0.2; H 0.839 ± 0.66; Y 0.925 ± 0.36; G -0.0839 ± 0.11; N 1.59 ± 0.44; E 1.11 ± 0.19; S 1.21 ± 0.24; D 1.18 ± 0.52; T 0.984 ± 0.58; L 0.886 ± 0.078; C 1.17 ± 0.32; F 1.25 ± 0.22; W 1.18 ± 0.088
I300: C 0.803 ± 0.36; A 1.51 ± 0.15; S 0.391 ± 0.083; G 0.368 ± 0.12; L 1.25 ± 0.1; W 1.27 ± 0.09; M 0.944 ± 0.21; P 1.42 ± 0.13; F 1.21 ± 0.35; V 1.13 ± 0.28; R -0.144 ± 0.081
P314: E 1.54 ± 0.15; S 1.33 ± 0.16; I 1.5 ± 0.15; G 1.07 ± 0.47; C 1.53 ± 0.18; V 1.16 ± 0.37; D 1.5 ± 0.17; R 1.26 ± 0.22; Y 0.95 ± 0.15; L 1.21 ± 0.15; N 1.53 ± 0.13; F 1.18 ± 0.26; T 1.54 ± 0.17; M 1.62 ± 0.15; A 1.13 ± 0.17; W 1.6 ± 0.17; Q 1.17 ± 0.14
P321: F 0.903 ± 0.49; R 1.26 ± 0.26; M 1.61 ± 0.27; N 1.03 ± 0.51; D 1.55 ± 0.18; G 1.01 ± 0.14; I 1.53 ± 0.16; A 0.987 ± 0.33; W 1.6 ± 0.15; H 1.21 ± 0.32; Y 0.641 ± 0.72; V 1.41 ± 0.28; L 1.17 ± 0.25; S 1.42 ± 0.13
R304: A 1.49 ± 0.18; G 1.24 ± 0.36; S 0.843 ± 0.6; V 1.51 ± 0.27; Y -0.17 ± 0.25; K 1.31 ± 0.65; L 1.06 ± 0.17; I 0.364 ± 0.3; F 0.0963 ± 0.15
